The values that follow come from US20200181239A1.

One series has as its target canine PD-L1 (canine). Kind of series: competition ELISA: biotinylated canine PD-L1 pre-incubated with the inhibitor, then bound to coated canine PD-1, streptavidin-HRP. For orientation: In an ELISA, binding on a coated surface is turned into a signal by an enzyme label.
Another series concerns the target papain (UniProt P00784).
In series [1] the target is T1, human Stefin A (wild type human Cystatin A).
T1 chain: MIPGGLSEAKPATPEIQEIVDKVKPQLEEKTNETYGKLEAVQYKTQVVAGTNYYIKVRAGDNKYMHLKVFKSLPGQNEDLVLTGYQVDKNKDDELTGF

In turn, canine PD-1 (receptor) showed an IC50 (read off the curve) in the series with canine PD-L1 (canine) of 20 nM. Consider “human Stefin A (wild type human Cystatin A) (from UniProt P01040 1-98)”, for which the IC50 (read off the curve) with papain worked out at 1 nM.

B1: papain (protein)
chain: IPEYVDWRQKGAVTPVKNQGSCGSCWAFSAVVTIEGIIKIRTGNLNEYSEQELLDCDRRSYGCNGGYPWSALQLVAQYGIHYRNTYPYEGVQRYCRSREKGPYAAKTDGVRQVQPYNEGALLYSIANQPVSVVLEAAGKDFQLYRGGIFVGPCGNKVDHAVAAVGYGPNYILIKNSWGTGWGENGYIRIKRGTGNSYGVCGLYTSSFYPVKN
On to B1, for which the “papain activity assay: fluorescence (excitation 380 nm, emission 460 nm) from the substrate N-Carbobenzyloxy-Phe-Arg-7-amido-4-methylcoumarin” value in series [1] is “hSteA is a potent inhibitor of papain”.
